For three molecules, Kd results are on record in US20140302026A1 (published 2014).

For experiment [1], the target named is artificial endostatin dimer (UniProt P39060). The experiment can be described thus: SPR (Biacore).
The target of the next experiment is fibronectin (UniProt P02751 32-2477). The experiment can be described thus: SPR (Biacore).

The Kd is the concentration at which binding is half-saturated. In experiment [1], “fibronectin (from UniProt P02751 32-2477)” returned a dissociation constant (Kd) of 4.84 nM.

B1: Human VEGF (R&D) (ligand)
chain: APMAEGGGQNHHEVVKFMDVYQRSYCHPIETLVDIFQEYPDEIEYIFKPSCVPLMRCGGCCNDEGLECVPTEESNITMQIMRIKPHQGQHIGEMSFLQHNKCECRPKKDRARQENPCGPCSERRKHLFVQDPQTCKCSCKNTDSRCKARQLELNERTCRCDKPRR
Take B1: in the experiment with fibronectin, the Kd came out at 1.35 nM.

B2: human NC-1 (hNC-1) trimer of collagen 18 (other)
chain: SGVRLWATRQAMLGQVHEVPEGWLIFVAEQEELYVRVQNGFRKVQLEARTPLPRGTDNEVAALQPPVVQLHDSNPYPRREHPHPTARPWRADDILASPPRLPEPQPYPGAPHHSSYVHLRPARPTSPPAHSHRDFQPVLHLVALNSPLSGGMRGIRGADFQCFQQARAVGLAGTFRAFLSSRLQDLYSIVRRADRAAVPIVNLKDELLFPSWEALFSGSEGPLKPGARIFSFDGKDVLRHPTWPQKSVWHGSDPNGRRLTESYCETWRTEAPSATGQASSLLGGRLLGQSAASCHHAYIVLCIENSFMTASK
In the case of B2, the Kd in the experiment with fibronectin was 8.4 nM.
